Measured values taken from patent EP4814011A1 (Shanghai Huaota Biopharmaceutical Co., Ltd., dated 2026).
Where a chain is given by its changes, count along the chain named. Numbers in names are those of the source.

T1: Trypsin inhibitor type 1-S from Glycine max (Glycine max, UniProt P01070 25-205)
T1 construct: Amine coupled to a CM5 chip
T1 sequence (looked up): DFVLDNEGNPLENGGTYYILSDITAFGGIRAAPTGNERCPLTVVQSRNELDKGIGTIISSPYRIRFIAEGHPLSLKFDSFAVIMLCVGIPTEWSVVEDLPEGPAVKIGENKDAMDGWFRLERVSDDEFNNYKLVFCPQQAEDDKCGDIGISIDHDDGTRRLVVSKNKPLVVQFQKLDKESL

B1: 900792-huH2L2 (antibody, human IgG1, kappa, L234A L235A, V domains shown)
VH: QVQLVQSGAEVKKPGASVKVSCKASGYAFTNYLIEWVRQAPGQGLEWMGIINPESGDTYYAQKFQGRVTMTADKSTSTAYMELSSLRSEDSAVYFCAKESLTGSSYDYWGQGTTLTVSS
VL: DIQMTQSPSSLSASVGDRVTITCRASENIYSNLVWYQQKPGKAPQLLVYGARNLQSGVPSRFSGSGSGTQFSLTISSLQPEDFATYYCQHFYETPLTFGTGTKLEIKR
notes: Humanized
B2: 900792-huH1L1 (antibody, human IgG1, kappa, L234A L235A, V domains shown)
VH: B1 VH with V5Q, M48I, I50V, A61S, Q62E, M70L
VL: B1 VL with Q55A, S56D
notes: Humanized
B3: 900792-huH1L2 (antibody, human IgG1, kappa, L234A L235A, V domains shown)
VH: B1 VH with V5Q, M48I, I50V, A61S, Q62E, M70L
VL: B1 VL
notes: Humanized
B4: 900792-huH1L3 (antibody, human IgG1, kappa, L234A L235A, V domains shown)
VH: B1 VH with V5Q, M48I, I50V, A61S, Q62E, M70L
VL: B1 VL with V48I, S72T
notes: Humanized
B5: 900792-huH2L1 (antibody, human IgG1, kappa, L234A L235A, V domains shown)
VH: B1 VH
VL: B1 VL with Q55A, S56D
notes: Humanized
B6: 900792-huH2L3 (antibody, human IgG1, kappa, L234A L235A, V domains shown)
VH: B1 VH
VL: B1 VL with V48I, S72T
notes: Humanized
B7: 900792-huH3L1 (antibody, human IgG1, kappa, L234A L235A, V domains shown)
VH: B1 VH with V5Q, I50V, A61S
VL: B1 VL with Q55A, S56D
notes: Humanized
B8: 900792-huH3L2 (antibody, human IgG1, kappa, L234A L235A, V domains shown)
VH: B1 VH with V5Q, I50V, A61S
VL: B1 VL
notes: Humanized
B9: 900792-huH3L3 (antibody, human IgG1, kappa, L234A L235A, V domains shown)
VH: B1 VH with V5Q, I50V, A61S
VL: B1 VL with V48I, S72T
notes: Humanized
B10: 900792-huH4L1 (antibody, human IgG1, kappa, L234A L235A, V domains shown)
VH: B1 VH with M70L, F95Y
VL: B1 VL with Q55A, S56D
notes: Humanized
B11: 900792-huH4L2 (antibody, human IgG1, kappa, L234A L235A, V domains shown)
VH: B1 VH with M70L, F95Y
VL: B1 VL
notes: Humanized
B12: 900792-huH4L3 (antibody, human IgG1, kappa, L234A L235A, V domains shown)
VH: B1 VH with M70L, F95Y
VL: B1 VL with V48I, S72T
notes: Humanized
B13: 900792 chimera (antibody, human IgG1, kappa, L234A L235A, V domains shown)
VH: QVQLQQSGAELVRPGTSVKVSCKASGYAFTNYLIEWVKQRPGQGLEWIGVINPESGDTYYSEKFKGKATLTADKSSSTAYMQLSSLTSEDSAVYFCAKESLTGSSYDYWGQGTTLTVSS
VL: DIQMTQSPASLSASVGESVTITCRASENIYSNLVWYQQKQGKSPQLLVYGARNLADGVPSRFSGSGSGTQFSLKINSLQPEDFGNYYCQHFYETPLTFGTGTKLEIKR
notes: Human-mouse chimera of clone 77E6; human IgG1 constant region with L234A and L235A (Eu), human kappa

These binders were tested against Human TSLP (form and source not stated) (human, UniProt Q969D9 29-159, limits assumed) (assay: cell-based or functional assay).

Row | Binder | TARC in PBMC supernatant (ELISA)
1 | B1 | ~10 times better than Tezepelumab
2 | B2 | ~10 times better than Tezepelumab
3 | B3 | ~10 times better than Tezepelumab
4 | B4 | ~10 times better than Tezepelumab
5 | B5 | ~10 times better than Tezepelumab
6 | B6 | ~10 times better than Tezepelumab
7 | B7 | ~10 times better than Tezepelumab
8 | B8 | ~10 times better than Tezepelumab
9 | B9 | ~10 times better than Tezepelumab
10 | B10 | ~10 times better than Tezepelumab
11 | B11 | ~10 times better than Tezepelumab
12 | B12 | ~10 times better than Tezepelumab

Each binder was assayed against T2, Lysozyme solution from chicken egg (chicken, UniProt P00698 19-147) (assay: SPR, protein coupled to CM5).
T2 construct: Amine coupled to a CM5 chip
T2 sequence (P00698 19-147 limits assumed): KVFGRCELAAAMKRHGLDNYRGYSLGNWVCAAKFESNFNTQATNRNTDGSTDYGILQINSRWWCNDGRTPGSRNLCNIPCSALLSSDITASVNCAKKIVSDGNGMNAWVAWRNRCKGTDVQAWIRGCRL

Row | Binder | binding response (RU)
13 | B1 | 1.4
14 | B2 | 1.8
15 | B3 | 2
16 | B4 | 1
17 | B5 | 0.8
18 | B6 | 5.9
19 | B7 | 0.9
20 | B8 | 1.5
21 | B9 | 1.9
22 | B10 | 4
23 | B11 | 3.3
24 | B12 | 2.4
25 | B13 | 2.1

The binders below were run against T1, Trypsin inhibitor type 1-S from Glycine … (assay: SPR, protein coupled to CM5).

Row | Binder | binding response (RU)
26 | B1 | 6.8
27 | B2 | 5.7
28 | B3 | 6
29 | B4 | 5.9
30 | B5 | 6.9
31 | B6 | 6.8
32 | B7 | 5.6
33 | B8 | 8.1
34 | B9 | 8.7
35 | B10 | 9.6
36 | B11 | 8.6
37 | B12 | 6.6
38 | B13 | 7.2

These binders were tested against T3, human TSLP with His tag (ACRO, TSP-H52Ha) (human, UniProt Q969D9 29-159) (assay: SPR, His-TSLP captured on anti-His CM5, antibody analyte).
T3 construct: Bought protein; also called human TSLP antigens; Human TSLP (Acro, #TSP-H52Ha); not shown: His tag

Row | Binder | Kd [nM] | koff [s⁻¹] | kon [M⁻¹ s⁻¹]
39 | B1 | 0.172 | 0.000126 | 733000
40 | B2 | 0.126 | 9.45e-05 | 748000
41 | B3 | 0.176 | 0.000126 | 713000
42 | B4 | 0.0964 | 7.02e-05 | 728000
43 | B5 | 0.141 | 0.00011 | 782000
44 | B6 | 0.172 | 0.000126 | 733000
45 | B7 | 0.175 | 0.000129 | 737000
46 | B8 | 0.131 | 0.000108 | 822000
47 | B9 | 0.189 | 0.000143 | 755000
48 | B10 | 0.117 | 8.15e-05 | 694000
49 | B11 | 0.234 | 0.000174 | 743000
50 | B12 | 0.157 | 0.000121 | 771000
51 | B13 | 0.223 | 0.000157 | 703000

The binders below were run against T4, monkey TSLP antigen (R127A, R130S) Protein, His Tag (ACRO, Cat#: TSP-C52H4) (monkey, UniProt A0A7N9CAT7 29-159) in the same assay as above.
T4 construct: Bought protein
T4 sequence (A0A7N9CAT7 entry or part of it R127A R130S R127A R130S limits assumed, form in doubt): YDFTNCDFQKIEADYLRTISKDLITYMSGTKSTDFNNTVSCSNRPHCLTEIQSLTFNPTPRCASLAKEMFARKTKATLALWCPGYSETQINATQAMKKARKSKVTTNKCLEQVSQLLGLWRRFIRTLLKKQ

Row | Binder | Kd [nM] | koff [s⁻¹] | kon [M⁻¹ s⁻¹]
52 | B1 | 5.06 | 0.0165 | 3.27e+06
53 | B2 | 8.16 | 0.00339 | 416000
54 | B3 | 8.23 | 0.00274 | 333000
55 | B4 | 7.99 | 0.00321 | 402000
56 | B5 | 3.82 | 0.0122 | 3.19e+06
57 | B6 | 5.88 | 0.0189 | 3.22e+06
58 | B7 | 6.22 | 0.0362 | 5.82e+06
59 | B8 | 5.05 | 0.0327 | 6.47e+06
60 | B9 | 6.01 | 0.087 | 1.45e+07
61 | B10 | 4.17 | 0.00873 | 2.09e+06
62 | B11 | 3.99 | 0.013 | 3.27e+06
63 | B12 | 4.18 | 0.00989 | 2.37e+06
64 | B13 | 4.58 | 0.0159 | 3.47e+06
